One data set concerns the target T1, AP2-HC D1 (Plasmodium falciparum, UniProt Q8IKR9 1316-1374).
T1 sequence: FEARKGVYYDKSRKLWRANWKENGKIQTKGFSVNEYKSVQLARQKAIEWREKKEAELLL
In words: gcPBM; about 25 ug protein; PBS, 1% milk, 0.2 mg/ml BSA, salmon testes DNA, 0.03% Triton X-100. The settings on record: tags: N-terminal GST (pGEX-4T-1), kept; label: surface-attached array probe.

For another data set, the target named is T2, AP2-LT D1 (Plasmodium falciparum, UniProt Q8IAM1 2520-2577).
T2 sequence: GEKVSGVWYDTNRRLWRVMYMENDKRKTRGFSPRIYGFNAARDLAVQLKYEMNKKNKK
The data set is described as above. As to conditions: tags: N-terminal GST (pGEX-4T-1), kept; label: surface-attached array probe.

Residue numbers refer to the chain shown, from its start.

B1: CACACA_site5576 (dsDNA)
DNA 1: AAAAAAAAAAAACACACACACACACCGACACATACA
DNA 2: TGTATGTGTCGGTGTGTGTGTGTGTTTTTTTTTTTT
In the case of B1, the binding signal was 12.5 ln median PBM intensity, better of two orientations with AP2-HC D1 and 10.6 ln median PBM intensity, better of two orientations with AP2-LT D1.

B2: CACACA_site7363 (dsDNA)
DNA 1: B1 DNA 1 with A11G, C26G
DNA 2: B1 DNA 2 with G11C, T26C
Regarding B2, the binding signal is 11.9 ln median PBM intensity, better of two orientations with AP2-HC D1 and 10.2 ln median PBM intensity, better of two orientations in the data set with AP2-LT D1.

B3: CACACA_negctrl_site1674 (dsDNA)
DNA 1: TATTTTAATTATAAATTTAAAAAAAAAAAGAAAAAA
DNA 2: TTTTTTCTTTTTTTTTTTAAATTTATAATTAAAATA
Consider B3, for which the binding signal was 9.42 ln median PBM intensity, better of two orientations with AP2-HC D1 and 8.52 ln median PBM intensity, better of two orientations in the data set with AP2-LT D1.

B4: CACACA_site4689 (dsDNA)
DNA 1: ATAACCTAATAATACACACACATGAATATATATAAT
DNA 2: ATTATATATATTCATGTGTGTGTATTATTAGGTTAT
B4: the binding signal with AP2-HC D1 was 10.4 ln median PBM intensity, better of two orientations; in the data set with AP2-LT D1, 9.77 ln median PBM intensity, better of two orientations.

B5: CACACA_negctrl_site1027 (dsDNA)
DNA 1: ATTAAAAAGACAAAAAAAAAATTTTTTTTTTTTTTT
DNA 2: AAAAAAAAAAAAAAATTTTTTTTTTGTCTTTTTAAT
On to B5, for which the binding signal in the data set with AP2-HC D1 was 9.26 ln median PBM intensity, better of two orientations; in the data set with AP2-LT D1, 8.44 ln median PBM intensity, better of two orientations.

B6: CACACA_negctrl_site1788 (dsDNA)
DNA 1: TTTTATAAAATATAATATAATAATATATGTATAATA
DNA 2: TATTATACATATATTATTATATTATATTTTATAAAA
Regarding B6, the binding signal with AP2-HC D1 was 9.41 ln median PBM intensity, better of two orientations; in the data set with AP2-LT D1, 8.62 ln median PBM intensity, better of two orientations.

B7: CACACA_negctrl_site261 (dsDNA)
DNA 1: AACCTAAGCATTCTTCAAATTATATATGTAAAATGA
DNA 2: TCATTTTACATATATAATTTGAAGAATGCTTAGGTT
B7: the binding signal in the data set with AP2-HC D1 was 9.41 ln median PBM intensity, better of two orientations; in the data set with AP2-LT D1, 8.81 ln median PBM intensity, better of two orientations.

B8: CACACA_site8410 (dsDNA)
DNA 1: AAAAAATCACAACACACACACACACTAATAAAAAAA
DNA 2: TTTTTTTATTAGTGTGTGTGTGTGTTGTGATTTTTT
As to B8, the binding signal with AP2-HC D1 is 12.3 ln median PBM intensity, better of two orientations; in the data set with AP2-LT D1, 10.7 ln median PBM intensity, better of two orientations.

B9: CACACA_negctrl_site22 (dsDNA)
DNA 1: TTTTAAGATATAAATTAATACTTATATATATAGATA
DNA 2: TATCTATATATATAAGTATTAATTTATATCTTAAAA
Take B9: the binding signal with AP2-HC D1 is 9.27 ln median PBM intensity, better of two orientations; with AP2-LT D1 it was 8.45 ln median PBM intensity, better of two orientations.

B10: CACACA_negctrl_site1292 (dsDNA)
DNA 1: TATATTTAGAATACAATCTTAAAGTTGAAATAAAAT
DNA 2: ATTTTATTTCAACTTTAAGATTGTATTCTAAATATA
Regarding B10, the binding signal was 9.26 ln median PBM intensity, better of two orientations with AP2-HC D1 and 8.65 ln median PBM intensity, better of two orientations with AP2-LT D1.

B11: CACACA_site1724 (dsDNA)
DNA 1: TATATACGCAAACACACACACACATACACCCACATA
DNA 2: TATGTGGGTGTATGTGTGTGTGTGTTTGCGTATATA
In the case of B11, the binding signal with AP2-HC D1 was 11.9 ln median PBM intensity, better of two orientations; with AP2-LT D1, 10.4 ln median PBM intensity, better of two orientations.

B12: CACACA_negctrl_site640 (dsDNA)
DNA 1: GTATATATATTTCTTTAATAATTAAATTATAAATAT
DNA 2: ATATTTATAATTTAATTATTAAAGAAATATATATAC
For B12, the binding signal is 9.37 ln median PBM intensity, better of two orientations with AP2-HC D1 and 8.59 ln median PBM intensity, better of two orientations with AP2-LT D1.

B13: CACACA_negctrl_site803 (dsDNA)
DNA 1: TTTTGTAAAAAAAAAAAAAAAGGAAAATTAAAATAA
DNA 2: TTATTTTAATTTTCCTTTTTTTTTTTTTTTACAAAA
With B13, the binding signal with AP2-HC D1 was 9.16 ln median PBM intensity, better of two orientations; with AP2-LT D1 it was 8.33 ln median PBM intensity, better of two orientations.

B14: CACACA_negctrl_site1538 (dsDNA)
DNA 1: TTTTTTTTTAAGATGAAGATCAATATATAAATATAT
DNA 2: ATATATTTATATATTGATCTTCATCTTAAAAAAAAA
As for B14, the binding signal is 8.98 ln median PBM intensity, better of two orientations with AP2-HC D1 and 8.23 ln median PBM intensity, better of two orientations with AP2-LT D1.

B15: CACACA_negctrl_site1739 (dsDNA)
DNA 1: ACGATTCAAAGGGAATATAAAATATTATTATCTATA
DNA 2: TATAGATAATAATATTTTATATTCCCTTTGAATCGT
For the molecule B15, the binding signal with AP2-HC D1 was 9.48 ln median PBM intensity, better of two orientations; with AP2-LT D1 it was 8.83 ln median PBM intensity, better of two orientations.

B16: CACACA_negctrl_site1599 (dsDNA)
DNA 1: TTTTTAAATTATTTGAAAAAAAGAAAATTATAAACA
DNA 2: TGTTTATAATTTTCTTTTTTTCAAATAATTTAAAAA
Consider B16, for which the binding signal was 9.26 ln median PBM intensity, better of two orientations with AP2-HC D1 and 8.26 ln median PBM intensity, better of two orientations with AP2-LT D1.

B17: CACACA_site2430 (dsDNA)
DNA 1: CAAACAAACAGACACACACACACACCCAAAAATGAT
DNA 2: ATCATTTTTGGGTGTGTGTGTGTGTCTGTTTGTTTG
Take B17: the binding signal was 12.2 ln median PBM intensity, better of two orientations in the data set with AP2-HC D1 and 10.6 ln median PBM intensity, better of two orientations in the data set with AP2-LT D1.

B18: CACACA_negctrl_site1720 (dsDNA)
DNA 1: TTCTCAAAATTAAAATAACAGATTAACGAACTAACG
DNA 2: CGTTAGTTCGTTAATCTGTTATTTTAATTTTGAGAA
Take B18: the binding signal was 9.4 ln median PBM intensity, better of two orientations in the data set with AP2-HC D1 and 8.7 ln median PBM intensity, better of two orientations in the data set with AP2-LT D1.

B19: CACACA_site6350 (dsDNA)
DNA 1: CACAAACAGACAAACACACACACACGGACATACATA
DNA 2: TATGTATGTCCGTGTGTGTGTGTTTGTCTGTTTGTG
Consider B19, for which the binding signal in the data set with AP2-HC D1 is 10.6 ln median PBM intensity, better of two orientations; with AP2-LT D1 it was 10.2 ln median PBM intensity, better of two orientations.

B20: CACACA_negctrl_site1509 (dsDNA)
DNA 1: TTTAAAAAATGTTATATTATATAATTAAAAAAAAAA
DNA 2: TTTTTTTTTTAATTATATAATATAACATTTTTTAAA
With B20, the binding signal in the data set with AP2-HC D1 was 9.35 ln median PBM intensity, better of two orientations; with AP2-LT D1 it was 8.38 ln median PBM intensity, better of two orientations.

B21: CACACA_negctrl_site694 (dsDNA)
DNA 1: TAATTTATTACCATGTAATTATTACGAATATAGGAT
DNA 2: ATCCTATATTCGTAATAATTACATGGTAATAAATTA
In the case of B21, the binding signal was 9.4 ln median PBM intensity, better of two orientations with AP2-HC D1 and 8.68 ln median PBM intensity, better of two orientations with AP2-LT D1.

B22: CACACA_negctrl_site358 (dsDNA)
DNA 1: TGTTTCCAAAAAAAAAAAAAAAAAAAAAAAAAAAAA
DNA 2: TTTTTTTTTTTTTTTTTTTTTTTTTTTTTGGAAACA
As to B22, the binding signal in the data set with AP2-HC D1 is 8.96 ln median PBM intensity, better of two orientations; in the data set with AP2-LT D1, 8.01 ln median PBM intensity, better of two orientations.

B23: CACACA_site4184 (dsDNA)
DNA 1: TGAATAAATAAACACACACACATATATATATCTGTA
DNA 2: TACAGATATATATATGTGTGTGTGTTTATTTATTCA
As to B23, the binding signal with AP2-HC D1 was 10.8 ln median PBM intensity, better of two orientations; with AP2-LT D1, 10.1 ln median PBM intensity, better of two orientations.

B24: CACACA_negctrl_site934 (dsDNA)
DNA 1: AATTTTATTTAATTTTTTTGGGAAATGATAAAATTT
DNA 2: AAATTTTATCATTTCCCAAAAAAATTAAATAAAATT
Turning to B24, the binding signal with AP2-HC D1 is 9.22 ln median PBM intensity, better of two orientations; with AP2-LT D1 it was 8.39 ln median PBM intensity, better of two orientations.

B25: CACACA_negctrl_site709 (dsDNA)
DNA 1: TGAAAAAAAAAAAAAAAAAAAAGAAAAAAAAAAAAA
DNA 2: TTTTTTTTTTTTTCTTTTTTTTTTTTTTTTTTTTCA
For B25, the binding signal with AP2-HC D1 was 8.7 ln median PBM intensity, better of two orientations; in the data set with AP2-LT D1 it was 8.21 ln median PBM intensity, better of two orientations.

Values taken from PMC11417369, “DNA sequence and chromatin differentiate sequence-specific transcription factor binding in the human malaria parasite Plasmodium falciparum”.
